Source: paper PMC12048566

Target: T1, GST-OsARF24 (Oryza sativa (rice), UniProt Q2QQX6 1-841)
T1 sequence: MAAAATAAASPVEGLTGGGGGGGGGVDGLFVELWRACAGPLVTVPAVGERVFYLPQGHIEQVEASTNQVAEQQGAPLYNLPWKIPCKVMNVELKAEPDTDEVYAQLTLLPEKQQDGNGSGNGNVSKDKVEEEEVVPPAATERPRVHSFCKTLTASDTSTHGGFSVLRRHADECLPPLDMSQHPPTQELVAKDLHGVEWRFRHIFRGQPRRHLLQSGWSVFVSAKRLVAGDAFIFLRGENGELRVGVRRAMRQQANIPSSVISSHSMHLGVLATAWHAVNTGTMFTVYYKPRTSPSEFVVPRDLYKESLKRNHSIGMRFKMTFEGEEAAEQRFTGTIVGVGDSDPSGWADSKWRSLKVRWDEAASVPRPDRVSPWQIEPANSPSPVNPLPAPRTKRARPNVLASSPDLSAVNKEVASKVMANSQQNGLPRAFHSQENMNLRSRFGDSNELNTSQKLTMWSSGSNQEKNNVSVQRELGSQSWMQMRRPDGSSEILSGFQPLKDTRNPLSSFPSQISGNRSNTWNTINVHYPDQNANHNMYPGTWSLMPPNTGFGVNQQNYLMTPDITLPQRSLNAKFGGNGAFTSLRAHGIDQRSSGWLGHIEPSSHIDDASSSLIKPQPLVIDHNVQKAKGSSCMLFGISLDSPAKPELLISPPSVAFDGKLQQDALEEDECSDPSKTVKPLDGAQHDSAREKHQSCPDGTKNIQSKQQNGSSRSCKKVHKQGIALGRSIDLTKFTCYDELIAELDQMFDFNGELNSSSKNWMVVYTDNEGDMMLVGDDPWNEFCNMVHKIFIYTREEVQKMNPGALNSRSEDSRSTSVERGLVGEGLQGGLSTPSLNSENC
Test: EMSA

B1: ARF probe (OsMAP1/OsMPK3 promoter) (dsDNA)
DNA 1: TCATCGCCTTGCTGTCTCTGCGAATCGAGA
DNA 2: TCTCGATTCGCAGAGACAGCAAGGCGATGA
B1: binds.
